Data reported in US7125658B2, “Small protein that interacts with a ribonucleotide reductase subunit and uses thereof” (The Trustees of Columbia University in the City of New York, priority 1998, dated 2006).

Biological target: T1, mouse RNR (Mus musculus, UniProt P07742)
T1 construct: made in house; host or cells: E. coli BL21 (DE3)pLysS, pET3a
T1 sequence (P07742 1-792): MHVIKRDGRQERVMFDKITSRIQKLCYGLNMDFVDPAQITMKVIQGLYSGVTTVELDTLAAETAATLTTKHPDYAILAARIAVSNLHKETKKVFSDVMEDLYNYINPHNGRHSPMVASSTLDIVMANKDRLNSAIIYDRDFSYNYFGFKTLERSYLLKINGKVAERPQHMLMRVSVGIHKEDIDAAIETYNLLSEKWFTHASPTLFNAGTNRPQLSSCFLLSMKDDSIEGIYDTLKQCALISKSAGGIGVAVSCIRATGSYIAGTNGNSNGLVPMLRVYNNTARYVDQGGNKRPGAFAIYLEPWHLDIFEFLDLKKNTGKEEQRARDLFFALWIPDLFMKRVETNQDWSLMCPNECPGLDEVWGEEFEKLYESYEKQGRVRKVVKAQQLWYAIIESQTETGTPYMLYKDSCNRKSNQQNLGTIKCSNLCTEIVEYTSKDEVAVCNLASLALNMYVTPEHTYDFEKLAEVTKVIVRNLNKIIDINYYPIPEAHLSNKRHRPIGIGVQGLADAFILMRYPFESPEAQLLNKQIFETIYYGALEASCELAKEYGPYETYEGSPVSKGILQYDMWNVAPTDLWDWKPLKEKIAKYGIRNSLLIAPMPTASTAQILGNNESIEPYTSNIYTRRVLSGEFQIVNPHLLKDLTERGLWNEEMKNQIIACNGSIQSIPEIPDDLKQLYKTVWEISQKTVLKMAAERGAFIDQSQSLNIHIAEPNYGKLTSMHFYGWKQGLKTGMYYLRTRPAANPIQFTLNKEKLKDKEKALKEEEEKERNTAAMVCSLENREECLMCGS
Experiment: in vitro mouse ribonucleotide reductase CDP assay
Format: biochemical
Conditions: 300 fold molar excess of Sml1p (36 μg), 1 μg R1, increasing R2; dependent on R1 to R2 ratio
Method: FIG. 13 Inhibition of mouse RNR by the Sml1p. A series of tubes containing mouse RNR (1 μg of R1 protein and the indicated amounts of R2 protein) were incubated at 37° C. for 30 minutes as described in FIG. 9 in the absence (ã) or in the presence of 36 μg of Sml1p (o).
Inhibition of mouse ribonucleotide reductase by the Sml1protein. The effects of Sml1 protein on pure recombinant mouse ribonucleotide reductase were tested in a CDP assay in the presence of ATP as a positive effector (FIG. 13). In the figure, RNR activity in the presence of a fixed amount of R1 protein, and in the presence or absence of a 300 fold molar excess of Sml1p, are plotted against increasing concentrations of the R2 protein.

B1: Sml1p: 104 amino acid yeast protein encoded by YML058w (SML1) that binds Rnr1 and inhibits ribonucleotide reductase; recombinant, expressed in E. coli (protein)
chain: MQNSQDYFYAQNRCQQQQAPSTLRTVTMAEFRRVPLPPMAEVPMLSTQNSMGSSASASASSLEMWEKDLEERLNSIDHDMNNNKFGSGELKSMFNQGKVEEMDF
  inhibition of mouse RNR compared with yeast RNR: less pronounced
